Experimental data taken from patent publication EP4019090A1.
Where a chain is given by its changes, count along the chain named. Values belong to the binder of their own block, whether it stands above or below them.

How the values were obtained:
[1] = biological target: Biotinylated IL-4R (human) (UniProt P24394); assay: competitive ELISA; IL-4 coated, biotinylated IL-4R preincubated with scFv; reference dupilumab
[2] = biological target: Biotinylated IL-4R (human) (UniProt P24394); assay: competitive ELISA; IL-4 coated, biotinylated IL-4R preincubated with scFv, streptavidin-HRP
Human IL-4R-Fc (human) [3] = biological target: Human IL-4R-Fc (human) (UniProt P24394); assay: SPR
Human IL-4R-Fc (human) [4] = biological target: Human IL-4R-Fc (human) (UniProt P24394); assay: SPR (Biacore T200); human IL-4R-Fc captured via anti-human IgG-Fc, scFv as analyte; 1:1 model

Sequence of Human IL-4R-Fc (human) (P24394 26-232 limits assumed): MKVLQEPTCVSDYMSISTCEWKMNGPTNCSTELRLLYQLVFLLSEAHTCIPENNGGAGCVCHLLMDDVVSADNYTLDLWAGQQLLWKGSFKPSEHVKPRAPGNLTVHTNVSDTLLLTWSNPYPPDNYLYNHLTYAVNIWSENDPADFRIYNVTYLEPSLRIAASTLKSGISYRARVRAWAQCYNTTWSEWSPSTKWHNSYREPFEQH
Sequence of Biotinylated IL-4R (human) (P24394 26-232 limits assumed): as above

rel. IC50 (IC50, dupilumab/IC50 test sample) [1]: 3.46
IC50 [2]: 0.54 ng/mL
Kd (Human IL-4R-Fc (human) [3]): < 0.5 nM
B1: PRO1517 (scFv, from another filing)
scFv: DIQMTQSPSSLSASVGDRVTITCQASEDIESYLAWYQQKPGKAPKLLIYRASTLAYGVPSRFSGSGSGTDFTLTISSLQPEDFATYYCLGSSYSTGSNIFGTGTKVTVLGGGGGSGGGGSGGGGSGGGGSEVQLVESGGGLVQPGGSLRLSCAASGFSSSSAHYMCWVRQAPGKGLEWIGCIYAGSRGSTYYASWAKGRFTISRDNSKNTVYLQMNSLRAEDTAVYYCARAAFVNRGVSWIWPYYFSLWGQGTLVTVSS

rel. IC50 (IC50, dupilumab/IC50 test sample) [1]: 0.98
Kd (Human IL-4R-Fc (human) [4]): 0.0199 nM
koff (Human IL-4R-Fc (human) [4]): 5.42e-05 s⁻¹
kon (Human IL-4R-Fc (human) [4]): 2.72e+06 M⁻¹ s⁻¹
IC50 [2]: 1.92 ng/mL
Kd (Human IL-4R-Fc (human) [3]): < 0.5 nM
B2: PRO1535 (scFv, from another filing)
scFv: B1 scFv with A43P, V132S, G180A, R204K, Y227F
